Here are results for one molecule from patent US20240052063A1, “Binding Proteins 2” (Nucleus Therapeutics Pty. Ltd., priority 2017, published 2024).

Entries after “also recorded” stand apart in the source; their conditions may differ.

In data set [1] the test system is GBM cells extracted from human GBM tumours (intracranial). The experiment in a line: Orthotopic mouse model of GBM. In kind it is in vivo. The text has this:
An orthotopic mouse model of GBM was generated by intracranial injection of GBM cells extracted from human GBM tumours.

The subject of the next data set is MCF-7 cells. Nature of the data set: Nuclear penetration by protein L immunostain of fixed cells. In kind it is cell-based. The conditions noted are these: FIG. 12, listed as di-scFv (SEQ ID NO: 41). On the procedure: (§1) DLD-1 and MCF-7 cells were treated with control or di-scFv (SEQ ID NO: 41), and nuclear penetration was evaluated by protein L immunostain of fixed cells.

For another data set, the system named is DLD-1 cells. Described as above. The data set is classed as cell-based. The conditions noted are these: FIG. 11, listed as di-scFv (SEQ ID NO: 41). On the procedure: as §1
The subject of the next data set is DLD1 colon cancer cells. The experiment in a line: Alkaline phosphatase-based survey of nuclear penetration. The data set is classed as cell-based. The conditions noted are these: DLD1 cells treated one hour; FIG. 5.
For data set [2], the system named is HDR-proficient DLD1 cells. Nature of the data set: Selectivity of combination therapy in HDR-proficient cells. The data set is classed as cell-based. Particulars: 5 nM olaparib, 10 μM di-scFv, alone or combined. On the procedure:
Homology-directed repair (HDR) deficient BRCA2-DLD1 cells and PTEN-U251 cells were treated with control, 5 nM olaparib, 10 μM di-scFv, or 10 μM di-scFv+5 nM olaparib. Surviving fraction was determined by colony formation assay.
It was then determined whether the combination of di-scFv and olaparib is simply universally cytotoxic, regardless of DNA repair status. To evaluate this possibility, HDR-proficient DLD1 cells were treated with the above regimen to confirm selectivity of combination therapy to HDR-deficient malignant cells.

The test system of data set [3] is Primary human glioblastoma (GBM) cancer cells. The experiment in a line: Percentage of live cells by trypan blue staining. The data set is classed as cell-based. The conditions noted are these: seven primary human GBM tumour explants, FIG. 14; listed as di-scFv (SEQ ID NO: 41). The protocol:
Primary human glioblastoma (GBM) cancer cells extracted from primary human GBM tumours from patients were treated with control or di-scFv (SEQ ID NO: 41), and percentage of live cells was evaluated by trypan blue staining.

The test system of data set [4] is human GBM cancer stem cells (CSCs) grown as tumour spheres. Nature of the data set: GBM cancer stem cell tumour spheres: penetration and sphere volume. The data set is classed as cell-based. The conditions noted are these: listed as di-scFv (SEQ ID NO: 41). The protocol:
GBM cancer stem cells extracted from primary human GBM tumours from patients and grown as spheres were treated with control or di-scFv (SEQ ID NO: 41), and the effect of dose and incubation time on reduction of sphere volume was evaluated by confocal micrographs of DX1-rhodamine cellular penetration into GBM cells. Tumour spheres are recognised as a useful tool for pre-clinical studies as they retain tumour heterogeneity and more closely represent the original patient tumour.

Data set [5] concerns BRCA2-deficient DLD1 colon cancer cells. The experiment in a line: Cell viability by Trypan blue exclusion assay, BRCA2-deficient cells. The data set is classed as cell-based. The conditions noted are these: BRCA2-deficient DLD1, 7 days, FIG. 10. The protocol:
(§2) Next, a matched pair of BRCA2-proficient and deficient DLD1 colon cancer cells was treated with control media or media containing Variants 10, 13, 15, or 16. Cell viability was determined 7 days later by Trypan blue exclusion assay and by direct visualization of cell morphology by light microscopy. […] Representative light microscope images shown the changes in morphology in the BRCA2-deficient cancer cells treated with the variants are shown in FIG. 10, Panel A. Quantitative analysis of the cell survival by Trypan blue exclusion assay is shown in FIG. 10, Panel B.

For data set [6], the system named is BRCA2-proficient DLD1 colon cancer cells. The experiment in a line: Cell viability by Trypan blue exclusion assay, BRCA2-proficient cells. In kind it is cell-based. The conditions noted are these: BRCA2-proficient DLD1, 7 days, FIG. 10. On the procedure:
as §2

Data set [7] relates to PTEN-deficient U251 human glioma cells. The experiment in a line: Phospho-53BP1 foci accumulation (DNA damage), PTEN-deficient cells. In kind it is cell-based. On the procedure: A matched pair of PTEN-proficient and deficient U251 human glioma cells were treated with control media or media containing Variant 10, 11, 13, 15, or 16 for twenty-four hours. Cells were then washed, fixed, blocked, and then probed with an anti-phospho-53BP1 antibody overnight. Cells were then washed and incubated with an AlexaFluor555-conjugated secondary antibody. Finally, cells were washed, counterstained with DAPI, and visualized under a fluorescence microscope. Images were saved and evaluated by CellProfiler to determine mean number of phospho-53BP1 foci per cell.
(§3) A matched pair of BRCA2-proficient and deficient DLD1 colon cancer cells and PTEN-proficient and deficient U251 human glioma cells were treated with control media or media containing 10 μM di-scFv variant 13 (SEQ ID NO: 41), 5 nM olaparib, or combination treatment.

Data set [8] deals with PTEN-deficient U87 human glioma cells. Nature of the data set: Cell viability by Trypan blue exclusion assay and light microscopy. In kind it is cell-based. The conditions noted are these: PTEN-deficient U87, 7 days after treatment, FIG. 9. On the procedure:
Cell viability of PTEN-deficient U87 human glioma cells was also assessed following treatment with control media or media containing Variants 10, 13, 15, or 16. Cell viability was determined 7 days after treatment using Trypan blue exclusion assay and by direct visualization of cell morphology by light microscopy.

In data set [9] the test system is BRCA2-deficient DLD1 colon cancer cells. The experiment in a line: Phospho-53BP1 foci accumulation, BRCA2-deficient cells. The data set is classed as cell-based. The conditions noted are these: FIG. 17. On the procedure: as §3

B1: Variant 13: cell penetrating anti-DNA di-scFv variant, amino acid sequence SEQ ID NO: 41 (protein)
scFv: DIQMTQSPSSLSASLGDRATITCRASKTVSTSSYSYMHWYQQKPGQPPKLLIKYASYLESGVPSRFSGSGSGTDFTLTISSLQPEDAATYYCQHSREFPWTFGGGTKVEIKRADAAPGGGGSGGGGSGGGGSEVQLVESGGGLVQPGGSLRLSCAASGFTFSNYGMHWVRQAPGKGLEWVSYISSGSSTIYYADSVKGRFTISRDNAKNSLYLQMNSLRAEDTAVYYCARRGLLLDYWGQGTTVTVSSASTKGPSVFPLAPLESSGSDIQMTQSPSSLSASLGDRATITCRASKTVSTSSYSYMHWYQQKPGQPPKLLIKYASYLESGVPSRFSGSGSGTDFTLTISSLQPEDAATYYCQHSREFPWTFGGGTKVEIKRADAAPGGGGSGGGGSGGGGSEVQLVESGGGLVQPGGSLRLSCAASGFTFSNYGMHWVRQAPGKGLEWVSYISSGSSTIYYADSVKGRFTISRDNAKNSLYLQMNSLRAEDTAVYYCARRGLLLDYWGQGTTVTVSS
modifications: Variant 13
As to B1, the “incidence of apoptosis in tumours (TUNEL staining)” value in data set [1] (FIG. 16B) is given as “increased incidence of apoptosis”. Further, the “toxicity or weight loss associated with treatment” value in data set [1] (body weight profile, FIG. 16D) is “No toxicity or weight loss”. Further, the “median survival longer than controls” value in data set [1] (controls median 72 days) is given as “more than 20%”. This molecule returned a mean survival in [1] (group of 7 mice, FIG. 16E) of 83 days. Besides, the median survival in data set [1] (group of 7 mice, FIG. 16E) is given as 87 days. Besides, the “di-scFv in adjacent normal brain cells (protein L immunostaining)” value in data set [1] (normal brain, FIG. 16C) was “not evident”. In data set [1] (suggested by tumour size reduction and TUNEL staining), the “crossing of the blood brain barrier” value is “successfully crossed the blood brain barrier”. The “reduction of glioblastoma tumour size versus control mice” value in [1] (tail vein injection, brain sections, FIG. 16A) is “more than 40%”. In addition, the “di-scFv in GBM tumour cells (protein L immunostaining)” value in data set [1] (tumour tissue, FIG. 16C) is listed as “detected in the nuclei of GBM tumour cells”. Further, the nuclear penetration entry is “successfully penetrated; also recorded: penetrates HDR deficient MCF-7 breast cancer cell nuclei” with MCF-7 cells and “successfully penetrated; also recorded: penetrates HDR deficient DLD-1 colon cancer cell nuclei” in the data set on DLD-1 cells. Besides, the “nuclear penetration (histogram of cell counts versus nuclear staining intensity) relative to the yeast prototype” value with DLD1 colon cancer cells was “notable right shift and narrowing of distributions relative to the yeast prototype”. Also, the cell death result in [2] was “No effect on cell death”. In data set [3], the “cancer cell death (percentage of live cells)” value was “Five of the seven glioblastoma tumour explants treated with di-scFv (SEQ ID NO: 41) showed significant cancer cell death; also recorded: kills primary human glioblastoma cells”. In data set [4] (confocal micrographs, FIG. 15A), the “cellular penetration into GBM spheres” value is on record as “demonstrated cellular penetration in GBM spheres; also recorded: penetrates human glioblastoma spheres”. Further, in data set [4] (effect of dose and incubation time, FIG. 15B, C), the sphere volume entry is “reduced sphere volume in dose-dependent and time-dependant manner; also recorded: reduces sphere volume in a time-dependent (B) and dose-dependent (C) manner”. Besides, the “cell viability (cell killing)” value in [5] is on record as “killed by the variants”. Moreover, the “cell viability (toxicity)” value in data set [6] is “not toxic”. In addition, the “percentage of P53BP1-positive cells” value in [7] (HDR-deficient U251, 24 hour treatment, FIG. 17) is “increased”; in data set [9] (HDR-deficient DLD1, 24 hour treatment) it was “increased”. The “mean number of phospho-53BP1 foci per cell” value is “increased the number of foci” in [7] (PTEN-deficient U251, twenty-four hours, FIG. 8); “increased the number of phospho-53BP1 foci” in data set [7] (PTEN-deficient U251, 10 μM di-scFv, 5 nM olaparib, FIG. 17); “increased the number of phospho-53BP1 foci” in data set [9] (BRCA2-deficient DLD1, 10 μM di-scFv, 5 nM olaparib). The “cell viability relative to control treated cells” value in data set [8] was “caused reductions in cell viability”.
